This is an account of results in PMC11009304.

Assay [1] addresses hPIV3 L–P polymerase complex (L–P4) (human parainfluenza virus type 3 (hPIV3)) (UniProt P12577). Put plainly: SEC-MALS; purified L–P complex on an XBridge Protein BEH SEC column (200 Å) with a DAWN MALS detector, 0.5 ml/min, buffer B; bovine serum albumin as control. For orientation: Size exclusion chromatography separates by hydrodynamic size, large species first.
For assay [2] the target is unchanged. Put plainly: SEC; analytical SEC of the purified L–P complex, Superdex 200 Increase 5/150 GL, buffer B (20 mM Tris-HCl pH 7.5, 300 mM NaCl, 1% glycerol, 6 mM MgSO4, 1 mM DTT), calibrated with standard markers.
The target in assay [3] is human parainfluenza virus type 3 (hPIV3) phosphoprotein (P) (human parainfluenza virus type 3 (hPIV3)) (UniProt P06162). Briefly: cryo-EM structure.

Broadly, the stoichiometry N is a count of units in the complex or per binding partner. Consider “hPIV3 L–P polymerase complex (L–P4) (from UniProt P12577;P06162)”, for which the stoichiometry N in assay [1] and in assay [2] was 2 throughout.

Regarding “human parainfluenza virus type 3 (hPIV3) phosphoprotein (P) (from UniProt P06162 1-604) (natural protein)”, the stoichiometry N in assay [3] came to 4.
